Results on 120 sequences are retold here after the supplement of paper PMC10126150.

± gives the standard deviation of the averaged measurements.

The test system of the data set is ATP. Description: switch fluorescence ratio, 500 uM ATP over buffer (Cy3 cluster intensity, sum of 5 cycles each) (fold (ratio)); higher = stronger signal-on switching upon ATP binding; sequences stand for … in TCGTCGGCAGCGTCAGATGTGTATAAGAGACAGTTTTTTTTTTTTTTTTTTTTTTTTT…TC. The settings on record: aptamer strand: ATP DNA aptamer (quencher-CACCTGGGGGAGTATTGCGGAGGAAGG + anchor), 100 nM annealed; ATP concentration: 500 uM. In outline: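 Imaging in selection buffer was followed by imaging after 15 min with 500 uM ATP at 22 °C, for Cy3-labelled switching-strand clusters annealed to 100 nM quencher-labelled ATP aptamer on a modified Illumina MiSeq flow-cell. Five of these buffer/ATP cycles ran, separated by NaOH stripping and re-annealing. The fluorescence ratio per cluster is summed target-cycle over summed buffer-cycle Cy3 intensity, averaged per switch-domain sequence; clusters outside 100-1000 RFU were removed.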
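Further: ATP exposure 15 min at 22 °C before imaging.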

For TGGTGACTGA, the switch fluorescence ratio stood at 0.981 ± 0.011.

In the case of TGGTGAGGGG, the switch fluorescence ratio is 1.12 ± 0.24.

In the case of TGGTGAGTTT, the switch fluorescence ratio stood at 0.984 ± 0.019.

As to TGGTGATAGT, the switch fluorescence ratio amounted to 0.965 ± 0.035.

Consider TGGTGATGGG, for which the switch fluorescence ratio amounted to 0.9922 ± 0.0093.

Turning to TGGTGCAGGA, the switch fluorescence ratio worked out at 0.9776 ± 0.0092.

TGGTGCAGGG: the switch fluorescence ratio was 0.984 ± 0.015.

Turning to TGGTGCATGG, the switch fluorescence ratio is 1.03 ± 0.024.

For the sequence TGGTGCCGGT, the switch fluorescence ratio amounted to 1.01 ± 0.041.

For TGGTGCGCCC, the switch fluorescence ratio worked out at 1.033 ± 0.0058.

Regarding TGGTGCTCAT, the switch fluorescence ratio turned out to be 0.994 ± 0.024.

Turning to TGGTGGAATT, the switch fluorescence ratio turned out to be 1.02 ± 0.034.

Consider TGGTGGACGT, for which the switch fluorescence ratio worked out at 0.997 ± 0.039.

With TGGTGGCCGG, the switch fluorescence ratio was found to be 1.02 ± 0.019.

Take TGGTGGGATC: the switch fluorescence ratio came to 1.03 ± 0.025.

TGGTGGGGCA: the switch fluorescence ratio was determined as 0.977 ± 0.064.

TGGTGGGGGT: the switch fluorescence ratio turned out to be 0.999 ± 0.028.

Regarding TGGTGGGTAT, the switch fluorescence ratio is 0.999 ± 0.024.

For TGGTGGGTTT, the switch fluorescence ratio was found to be 1 ± 0.029.

Take TGGTGGTATG: the switch fluorescence ratio was determined as 1.01 ± 0.071.

With TGGTGTCACG, the switch fluorescence ratio came out at 0.983 ± 0.017.

Regarding TGGTGTCGT, the switch fluorescence ratio was 1.01 ± 0.011.

TGGTGTTGTC: the switch fluorescence ratio was found to be 1.03 ± 0.033.

Regarding TGGTTAAAAT, the switch fluorescence ratio turned out to be 1 ± 0.025.

Turning to TGGTTAAATT, the switch fluorescence ratio turned out to be 0.997 ± 0.033.

With TGGTTAACTG, the switch fluorescence ratio came to 1.13 ± 0.16.

In the case of TGGTTACGCT, the switch fluorescence ratio was determined as 1.028 ± 0.0084.

Take TGGTTACTCG: the switch fluorescence ratio turned out to be 0.984 ± 0.034.

Take TGGTTAGGG: the switch fluorescence ratio was determined as 0.988 ± 0.019.

Regarding TGGTTATAAT, the switch fluorescence ratio was found to be 0.992 ± 0.024.

As for TGGTTATTAC, the switch fluorescence ratio worked out at 1.037 ± 0.0094.

In the case of TGGTTATTAT, the switch fluorescence ratio worked out at 0.991 ± 0.015.

TGGTTCGAT: the switch fluorescence ratio came to 0.978 ± 0.015.

Take TGGTTCGGGG: the switch fluorescence ratio amounted to 0.96 ± 0.015.

Consider TGGTTCGGTG, for which the switch fluorescence ratio is 0.977 ± 0.016.

Consider TGGTTGAAAA, for which the switch fluorescence ratio came to 0.875 ± 0.033.

For the sequence TGGTTGAACC, the switch fluorescence ratio came out at 1.03 ± 0.024.

With TGGTTGAGAC, the switch fluorescence ratio worked out at 0.988 ± 0.016.

For TGGTTGATGA, the switch fluorescence ratio stood at 0.98 ± 0.064.

For the sequence TGGTTGCGTG, the switch fluorescence ratio turned out to be 1 ± 0.015.

Turning to TGGTTGGGAG, the switch fluorescence ratio turned out to be 1.01 ± 0.035.

Turning to TGGTTGGGCT, the switch fluorescence ratio came out at 1.01 ± 0.026.

With TGGTTGGGGA, the switch fluorescence ratio was 0.994 ± 0.036.

Take TGGTTGGTC: the switch fluorescence ratio is 0.965 ± 0.039.

For TGGTTGGTGC, the switch fluorescence ratio came out at 1.16 ± 0.17.

Regarding TGGTTGTTAT, the switch fluorescence ratio came to 1.008 ± 0.0058.

As to TGGTTGTTTA, the switch fluorescence ratio is 0.993 ± 0.0045.

Take TGGTTTAATA: the switch fluorescence ratio is 0.9853 ± 0.0079.

For the sequence TGGTTTACCA, the switch fluorescence ratio was 0.9936 ± 0.0041.

As to TGGTTTATTC, the switch fluorescence ratio turned out to be 0.986 ± 0.051.

As to TGGTTTCAGG, the switch fluorescence ratio was determined as 1.01 ± 0.025.

With TGGTTTGCCG, the switch fluorescence ratio was 1.01 ± 0.049.

With TGGTTTGGTA, the switch fluorescence ratio was found to be 0.961 ± 0.011.

As to TGGTTTTGCC, the switch fluorescence ratio was 1.005 ± 0.0082.

Regarding TGGTTTTGGG, the switch fluorescence ratio came to 0.992 ± 0.021.

Turning to TGGTTTTTAC, the switch fluorescence ratio turned out to be 1.01 ± 0.038.

Consider TGGTTTTTGG, for which the switch fluorescence ratio was 0.989 ± 0.018.

Regarding TGGTTTTTTC, the switch fluorescence ratio is 1.01 ± 0.033.

TGGTTTTTTT: the switch fluorescence ratio worked out at 0.992 ± 0.018.

On to TGTAAAAACG, for which the switch fluorescence ratio stood at 1.01 ± 0.056.

TGTAAAAAGC: the switch fluorescence ratio is 1.018 ± 0.0059.

Turning to TGTAAAAGGA, the switch fluorescence ratio stood at 1.01 ± 0.021.

Turning to TGTAAACCGG, the switch fluorescence ratio came out at 1.07 ± 0.042.

On to TGTAAATACA, for which the switch fluorescence ratio came out at 1.15 ± 0.18.

With TGTAAGCCGG, the switch fluorescence ratio stood at 1.05 ± 0.07.

Regarding TGTAAGGATT, the switch fluorescence ratio amounted to 1.009 ± 0.0083.

As to TGTAAGGGCG, the switch fluorescence ratio is 1.02 ± 0.016.

For TGTAATGGGT, the switch fluorescence ratio stood at 1 ± 0.029.

As for TGTACGACGG, the switch fluorescence ratio stood at 1.02 ± 0.023.

Consider TGTACTATGG, for which the switch fluorescence ratio came out at 1.01 ± 0.04.

On to TGTAGAGGGC, for which the switch fluorescence ratio was 1.04 ± 0.026.

On to TGTAGAGGGT, for which the switch fluorescence ratio worked out at 0.976 ± 0.029.

Turning to TGTAGGAAGT, the switch fluorescence ratio was found to be 0.992 ± 0.017.

Take TGTAGGACGG: the switch fluorescence ratio came out at 1.09 ± 0.094.

On to TGTAGGGGTG, for which the switch fluorescence ratio turned out to be 0.987 ± 0.016.

With TGTAGGTGGT, the switch fluorescence ratio is 0.978 ± 0.016.

Regarding TGTAGTAACG, the switch fluorescence ratio turned out to be 0.982 ± 0.012.

Turning to TGTAGTAGCA, the switch fluorescence ratio stood at 1.04 ± 0.034.

Take TGTATATTGG: the switch fluorescence ratio turned out to be 0.995 ± 0.015.

For TGTATCTCTG, the switch fluorescence ratio was found to be 1.02 ± 0.02.

On to TGTATGGCGC, for which the switch fluorescence ratio stood at 1.01 ± 0.058.

As to TGTATGGGGT, the switch fluorescence ratio stood at 0.973 ± 0.018.

Take TGTATGTTTT: the switch fluorescence ratio was determined as 0.962 ± 0.046.

With TGTATTATGT, the switch fluorescence ratio is 1.002 ± 0.004.

Regarding TGTATTCGGG, the switch fluorescence ratio came out at 0.978 ± 0.01.

Take TGTATTTAC: the switch fluorescence ratio was found to be 1.11 ± 0.048.

For the sequence TGTCAAAAAT, the switch fluorescence ratio was determined as 0.982 ± 0.043.

In the case of TGTCAGACGT, the switch fluorescence ratio was found to be 1 ± 0.011.

In the case of TGTCAGGGGT, the switch fluorescence ratio was determined as 1.03 ± 0.043.

Consider TGTCCCACAA, for which the switch fluorescence ratio stood at 0.999 ± 0.035.

In the case of TGTCCGCCTG, the switch fluorescence ratio came out at 1.07 ± 0.019.

As for TGTCGGAAAG, the switch fluorescence ratio turned out to be 0.985 ± 0.026.

As for TGTCGGCTGC, the switch fluorescence ratio amounted to 1.09 ± 0.015.

As for TGTCGGGTTA, the switch fluorescence ratio is 1.01 ± 0.027.

For the sequence TGTCGGTGGG, the switch fluorescence ratio turned out to be 0.992 ± 0.016.

TGTCGGTGTC: the switch fluorescence ratio was determined as 1.01 ± 0.028.

As for TGTCGTCTTC, the switch fluorescence ratio is 0.99 ± 0.016.

With TGTCGTGTAG, the switch fluorescence ratio is 1.01 ± 0.0094.

Turning to TGTCTCAGAT, the switch fluorescence ratio amounted to 0.97948 ± 0.00033.

As for TGTCTTTTTA, the switch fluorescence ratio stood at 0.995 ± 0.028.

For TGTGAAAGGC, the switch fluorescence ratio was 1.04 ± 0.03.

As to TGTGAAGTTG, the switch fluorescence ratio came out at 1.008 ± 0.0027.

In the case of TGTGAATGGG, the switch fluorescence ratio is 1.02 ± 0.017.

On to TGTGACAATA, for which the switch fluorescence ratio was found to be 1.04 ± 0.01.

For TGTGACAGGA, the switch fluorescence ratio was 1.02 ± 0.057.

For the sequence TGTGAGTTTT, the switch fluorescence ratio turned out to be 0.974 ± 0.014.

As for TGTGATGCCG, the switch fluorescence ratio amounted to 0.976 ± 0.015.

As for TGTGATTTTG, the switch fluorescence ratio came to 0.998 ± 0.028.

Take TGTGCAGAAA: the switch fluorescence ratio was determined as 0.9899 ± 0.0059.

As to TGTGCGACGG, the switch fluorescence ratio turned out to be 0.989 ± 0.021.

With TGTGCGTCGA, the switch fluorescence ratio came out at 1.001 ± 0.00055.

In the case of TGTGCTGGTG, the switch fluorescence ratio came out at 1.039 ± 0.0068.

For the sequence TGTGGAGAGC, the switch fluorescence ratio came to 0.999 ± 0.038.

On to TGTGGCAGTT, for which the switch fluorescence ratio amounted to 1.02 ± 0.027.

As to TGTGGGACGT, the switch fluorescence ratio was found to be 0.952 ± 0.01.

With TGTGGGATAG, the switch fluorescence ratio came out at 0.979 ± 0.029.

For the sequence TGTGGGCATT, the switch fluorescence ratio was found to be 1.019 ± 0.0053.

For TGTGGGGAGC, the switch fluorescence ratio amounted to 0.995 ± 0.043.

Consider TGTGGGGGTA, for which the switch fluorescence ratio stood at 0.986 ± 0.034.

Take TGTGGGGTAT: the switch fluorescence ratio worked out at 1.07 ± 0.045.
